According to article PMC9600255:

Biological target: His6-tagged cytokeratin-19 (Novus Biologicals) (UniProt P08727)
Test: MST; His6-cytokeratin-19 labelled with RED-tris-NTA 2nd Generation dye, kept at 25 nM; BspC full-length or V-domain titrated from 5 uM to 0.153 nM; premium capillaries, Monolith NT.115 Pico, 20% excitation power

UniProt P08727, sequence (P08727 whole entry): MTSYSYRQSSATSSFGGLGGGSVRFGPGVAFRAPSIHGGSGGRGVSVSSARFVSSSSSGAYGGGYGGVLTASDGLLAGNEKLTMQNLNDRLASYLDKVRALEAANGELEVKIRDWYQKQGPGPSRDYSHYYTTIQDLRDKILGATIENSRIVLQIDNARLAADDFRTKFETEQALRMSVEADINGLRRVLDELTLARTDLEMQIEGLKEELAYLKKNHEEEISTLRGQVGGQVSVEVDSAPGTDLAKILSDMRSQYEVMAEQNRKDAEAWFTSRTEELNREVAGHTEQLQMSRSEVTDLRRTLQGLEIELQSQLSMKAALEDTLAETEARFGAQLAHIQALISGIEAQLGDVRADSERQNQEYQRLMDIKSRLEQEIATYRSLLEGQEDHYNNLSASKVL

Substance | Kd
BspC V-domain protein (recombinant BspC consisting of only the variable domain) (domain or fragment) | 362 nM
full-length BspC protein (Group B streptococcal surface protein C) (natural protein) | 32.9 nM
